Measured values from the DeepSol protein solubility set.

Assay: soluble on expression in E. coli; label from the status in PepcDB or PDB records
For “MAHHHHHHMSSSAEEKEAKKQEELRLAGSDSEGVRAAVKAQRELKKKRDALRKVQKKIRSGGSDAEVAAAIEQEAALLAEIGHLEALRGASSAPSTAHVAAASFTSTPATAAASPGALVTVATNKSSGAKAARSGEPAKEITAEERAASAKRLHDLVQGAMDANRLKCLHVLPRDAVVHPRIAEVAVLMEQMLLVGGSARALALISAFRELSRTTTVLAVPSLNEVNTTAFEKLIQINFDFVRRKREASAGMRHVKDVLVRRFVALRDEVIHPKPNMVDLIKDLGGPREVTLKILDAIEAELKMSFKSIVEDRSLPYVSSSDTILVFGRSSLVEYILLSRSRDPQCKPKRVIVIDSAPLFEGRQLAEKLSSAGIDVTYGLITACCTLMPKCTRVFMGASAVLQNGDMFGRCGMALVAACAKLFRKPVLCFSESYKFVPEVWVGNLAQNTKLADMRPAAEVHGSDTGTHSPLVYPTPPTLSPPQLRASGGWGTPARGADFLTRSGGGGAVPFSSSASGYLYDLTPASYIDMIICEMGCLHTSAIVAAIKDREGRDTSQLLNLVRG”, the “soluble on expression in E. coli” value was “soluble”. With “GMSDPAGKPCIICVAITGSLPTKENNPAVPITLAEQVESTHEAFEAGASIAHCHVRDDEGRPTSDPDRFAALKEGLERHCPGMIVQLSTGGRSGAGQARGAMLPLCPDMASLSVGSNNFPTRVYENPPDLVDWLAAEMLKYDIKPEIEAFDLSHILQAKRMAGDGRLAGTPYVQFVMGVRNAMPADRDVFDYYIHTVRRLFGEDAPWCAAGIGPSQIVLNEWAISSGGHARTGLEDNVRLDRDRLAPSNAALVGRAVELCEKYERPVATWRQARQILGLRMV” the “soluble on expression in E. coli” value was “soluble”. In the case of “MSGSHHHHHHSSGIEGRSEVVMENVTAFWEEGFGELFEKAKQNNNNRKTSNGDDSLSFSNFSLLGTPVLKDINFKIERGQLLAVAGSTGAGKTSLLMMIMGELEPSEGKIKHSGRISFCSQFSWIMPGTIKENIIFGVSYDEYRYRSVIKACQLEEDISKFAEKDNIVLGEGGITLSGGQRARISLARAVYKDADLYLLDSPFGYLDVLTEKEIFESCVCKLMANKTRILVTSKMEHLKKADKILILHEGSSYFYGTFSELQNLQPDFSSKLMGCDSFDQFSAERRNSILTETLHRFSLEGDAPVSGGGGSGGGGSGGQMTVKDLTAKYTEGGNAILENISFSISPGQRVGLLGRTGSGKSTLLSAFLRLLNTEGEIQIDGVSWDSITLQQWRKAFGVIPQKVFIFSGTFRKNLDPYEQWSDQEIWKVADEVGLRSVIEQFPGKLDFVLVDGGCVLSHGHKQLMCLARSVLSKAKILLLDQPSAHLDPVTYQIIRRTLKQAFADCTVILCEHRIEAMLECQQFLVIEENKVRQYDSIQKLLNERSLFRQAISPSDRVKLFPHRNSSK”, the “soluble on expression in E. coli” value is reported as “soluble”. In the case of “MNNSNRIIPFAFKSSEHGSYEDEMMEMEDVVDVEDYMGGEKYDSYNDAKEDIKDFKTTQRMKKIHRMEKIEQNIASEKIDIIELGTRVMVSTSDKTLNEASLERTIRCGISEATFLGDISMESLVEGMVNPSAADGRFAMLGTSIMLNALKSNIKDLRGTIVGQTTNTNSESKFDKIDLSLMNLSHCQQTSYNIRATGVFSNADLQYVFSLLTFRRNAKLLNKTKQFIKAYFCVACRPRCMIWRYTLRRAGNSQRRAILNLPSAIVSTITQFLLDLTGISDANIPYDQLDPMTPLSISLGEDESMRVQRYEEACRLKDPLTRFFRDAITDCLNELREMPFCLNTGILLSPLRGREQGTSCVTWKDYEGFLKREHDLPSEANMKKRTQFEQRLCDIIPRVRRPVPN”, the “soluble on expression in E. coli” value is reported as “not soluble”. For “MGRSQATAESYRDSLTIFKNYLVGELGKSISTFQFSDCTKECIYNFREYLLANGSQPSTVNVRVAAIRAYLNYASDMDISVQSVALAISQISPCLEHHHHHH”, the “soluble on expression in E. coli” value was “not soluble”. For “MGSDKIHHHHHHMTYTPFFIHGEDRRSRWLITCDHATNTVPPEICGGDLGLAREDMERHIAYDVGAYEVSRLLGEMLAAPVIAANFSRLVIDPNRGEDDPTLLMKLYDGSIIPGNRHADAAERERRLNMCYRPYHDALARLAARPGVVLVSMHSFTRQLRGRAPRPWQIGVLHTADQRFSDPLIARLRGEADLCVGVNQPYTGVLPGDAIDTHCTAFGRPNALIELRNDLIGDPAGQHAWAERLAPLLQDALADSGL”, the “soluble on expression in E. coli” value was “not soluble”. In the case of “MEAKTNTFLLVAERWWNVKKTSVTEDYADDIWRSLERDIFPAIGDISITEIKAHTLVKAVQPVQARGALETVRRLCQRINEVMIYAQNTGLIDAVPSVNIGKAFELEHHHHHH”, the “soluble on expression in E. coli” value is reported as “not soluble”. With “PFRLHATYDESISRMLDVFEKVDRDIPFNGLPWFFDHAETISPKNIERVRALGGGIAIQDRMAFQGEYFVERYGAKAAEMTPPIQRMLAEGIPVGAGTDATRVSSYNPWTSLYWMVSGRTVGGLELYPQGLSRDTALELYTHGSAWFSSEQGKKGQIKVGQLADLVALSADYFSVEEEAIKWIESLLTVVDGKVVHAAGDFDQLAPPSLPVTPDWSPVAKVPGHWKPGAPLQNQVHQCSGPCAVHAHGHQKARMSNVPVSDFQGFWGAFGCSCFA” the “soluble on expression in E. coli” value was “not soluble”. In the case of “ATLKQLDGIHVTILHKEEGAGLGFSLAGGADLENKVITVHRVFPNGLASQEGTIQKGNEVLSINGKSLKGTTHHDALAILRQAREPRQAVIVTRKLTPEAMPDLNS”, the “soluble on expression in E. coli” value is reported as “soluble”. For “MRTQWPSPAKLNLFLYITGQRADGYHTLQTLFQFLDYGDTISIELRDDGDIRLLTPVEGVEHEDNLIVRAARLLMKTAADSGRLPTGSGANISIDKRLPMGGGLGGGSSNAATVLVALNHLWQCGLSMDELAEMGLTLGADVPVFVRGHAAFAEGVGEILTPVDPPEKWYLVAHPGVSIPTPVIFKDPELPRNTPKRSIETLLKCEFSNDCEVIARKRFREVDAVLSWLLEYAPSRLTGTGACVFAEFDTESEARQVLEQAPEWLNGFVAKGVNLSPLHRAML”, the “soluble on expression in E. coli” value was “soluble”. For “MIRYKIYQNQQKKGLNAGKWFARAVSDETFDLSKLAEHMSKHNSPYSSGVIKGVLTDMVDCIKELLLDGKSVKIDDLAIFGVGIRSKAAETLEEFSLEKNITGMRLKARATGNLSTTNLKLDSQLKQQAEYQKPTTPGGGGSGSGNTPDPKPNPDEGDEEAPDPTV”, the “soluble on expression in E. coli” value was “not soluble”. With “MGSDKIHHHHHHMLFNTRPKEDRKDLYDREKEIEMIKDSIARGEWIAVLGMRRIGKTSVVNVAVKEIGAIKVSINLMRIHDSRKKQYPKHVLISLLIEEINEAIKNYTILGKVAKLLSNILGVEEIQTNKVRAKLTKIRGTDITYIIREMDSIARDNKKQLVIILDEAQELAKVNGLDFPSIFHDVYDNCKNTVIIFTGSMVKLIEKTLKNIEYTEPFFGRYIRKITLGRFLPEQSREFLEKGFEEEGIKVDESVIDEAVKRLDGIPGWLTLFGSEYTFSAKMGTKPRIDEIIEKAINEVRNEARNFIFSTQSPLRYSAVILALDRLGGKGELHEIVKVSSTILNENIPEPRVYEILNRLVEFDFIERREDNEYYLHQDEPNRKGLILAAKDSPASYSI” the “soluble on expression in E. coli” value was “not soluble”. In the case of “GMSIPANNSPVRLALIGAGRWGKNYIRTIAGLPGAALVRLASSNPDNLALVPPGCVIESDWRSVVSAPEVEAVIIATPPATHAEITLAAIASGKAVLVEKPLTLDLAEAEAVAAAAKATGVMVWVEHTQLFNPAWEALKADLTSIGPILAVRSEAGNHGPYRPGGVPMLWDWGAHDVSMVLDLMGRDPDSTSASWAARGEKDGGEAGDVTLTLAFSTVEAHIRLCNTMDKCRRLAVFGEAGTLVMDDRATDKLTLHPPQPDGNWPVGQGHALTVTDEMPLTRAVRLFAGAVRQPEPGPSPLELGLRVVRVLGACS”, the “soluble on expression in E. coli” value is reported as “soluble”. For “MAKKKKEILFCDYYEDWVETYKVGAIEDVTLNKYYVAARQLRDICPKLLMSDFSRKDYQLIMNEYGKTHEKQTAKDFHHHIKAAILDAYHDGLLKSDPTYRAVIKGKELEHHHHHH”, the “soluble on expression in E. coli” value was “not soluble”. For “IKLVIVTGMSGAGKTVAIQSFEDLGYFTIDNMPPTLVPKFLELAAQSGDTSKIAMVVDMRSRLFFREINSILDSLEINDNINFKILFLDATDTELVSRYKETRRSHPLAADGRVLDGISLERELLAPLKSMSQNVVDTSELTPRQLRKVISKEFSNQDSQSSFRIEVMSFGFKYGIPLDADLVFDVRFLPNPYYKPELRDKTGLDTEVYDYVMSFDESDDFYDHLLALIKPILPGYQNEGKSVLTVAIGCTGGQHRSTAFAHRLSEDLKADWTVNESHRDKNKR”, the “soluble on expression in E. coli” value was “not soluble”. In the case of “MTSKSVATPALDPAFQQLTAFASVHNFILVKGQADKQDLAGYNIPKLKELIVAYHNLYRSKHGAPPLVADPVMDVAAKRWADEMAKSGWISHEKPRKYGENVAMFCQSGCWPLPQTLAQAMVHLFYIEGIGYDYSSFKPELLKENGHFTQIVWKSSRKIGVGISIGKSSQPPYIPTMFHCVKFDPPGNVLAQQYYLSNVQRPTA”, the “soluble on expression in E. coli” value is reported as “not soluble”. In the case of “MSLKNARLHVINPDEVATSVLFRLLAPTGIESRHYPCAEDFLNQYQANGPACLLVDMLLPDWGPLRLLGELKRRQIHHPCIFMSYRCEEQTLMELLEQQAFAFIKKPLNQVKLTELIQVAMGQDQKEGHHHHHH”, the “soluble on expression in E. coli” value is reported as “not soluble”. For “SSQKSLFREDWFQNGSFVSLTLYIKDVDRDESNVTFTQQTVTVNLFSARDKSIYEQTWELSHPVVAEQSLVTYFPQKVELKMKKKEEGLLWKQLTSGATLKSSDNTQSSYSSRETASLQSGRFPKQFAVEEDDDEEQDQSKDLLAFFRDIYEKSDEDTRRAMVKSFVESQGKVLSTDWKKVSSQNSRYDNE”, the “soluble on expression in E. coli” value was “soluble”. For “MRGSHHHHHHGRSLNPLSTPQFDSTDETPASYNLAVRRAAPAVVNVYNRGLNTNSHNQLEIRTLGSGVIMDQRGYIITNKHVINDADQIIVALQDGRVFEALLVGSDSLTDLAVLKINATGGLPTIPINARRVPHIGDVVLAIGNPYNLGQTITQGIISATGRIGLNPTGRQNFLQTDASINPGNSGGALVNSLGELMGINTLSFDKSNDGETPEGIGFAIPFQLATKIMDKLIRDGRVIRGYIGIGGREIAPLHAQGGGIDQLQGIVVNEVSPDGPAANAGIQVNDLIISVDNKPAISALETMAQVAEIRPGSVIPVVVMRDDKQLTLQVTIQEYPATN”, the “soluble on expression in E. coli” value was “soluble”. With “MYSANPTLGYYVPPLDVNNLTDQQTAISIEHLSLYYQQSRALSDISMRIPKGQVTAFIGPSGCGKSTLLRCINRMNDLVEGTRVEGEVKLHGKNIYHPDVDVPTLRRRVGMVFQRPNPFPKSIYENVVYGLRLQGIKNSRALDDAAEQSLRAAALWDEVKHRLHENAFGLSGGQQQRLVIARAIAIEPEVLLLDEPTSALDPISTLTIEELIHDLKTKYTVVIVTHNMQQAARVSDHTAFIHMGKLIEYADTDSIFTSPLKKQTEDYITGRYG” the “soluble on expression in E. coli” value was “not soluble”. In the case of “MSLGGNGREKDHASELRSIFSLKKIADAVNGYEEAKYVVFGIPFDNTSSYRRGSKYAPDSIRGAYVNLESYEYSYGIDLLASGMADLGDMEESEDVEYVIDTVESVVSAVMSDGKIPIMLGGEHSITVGAVRALPKDVDLVIVDAHSDFRSSYMGNKYNHACVTRRALDLLGEGRITSIGIRSVSREEFEDPDFRKVSFISSFDVKKNGIDKYIEEVDRKSRRVYISVDMDGIDPAYAPAVGTPEPFGLADTDVRRLIERLSYKAVGFDIVEFSPLYDNGNTSMLAAKLLQVFIASREKYYKEHIEGHHHHHH”, the “soluble on expression in E. coli” value is reported as “soluble”. For “SNMQLDTLRRIVQEINSSVSLHDSLDIMVNQVADAMKVDVCSIYLLDERNQRYLLMASKGLNPESVGHVSLQLSEGLVGLVGQREEIVNLENASKHERFAYLPETGEEIYNSFLGVPVMYRRKVMGVLVVQNKQPQDFSEAAESFLVTLCAQLSGVIAHAHAVGNIDVFRKPSNGA”, the “soluble on expression in E. coli” value was “soluble”. In the case of “MGSDKIHHHHHHMSHSTDLSALARWMAADFSNQAQAFENPPFYAHIRVAIRPLDQAKFGDRLLFLEQAYDFMLQRPYRLRVLKLKVVEDHIEIENFKVKDEEKFYGAARDLGKLAQLTPADLEPMHGCDMIVEWTGTSFKGEVQPGRQCRVMRDGKETYLENSFEVSETGLISLDRGYDPETNERVWGSVAGAFHFVRWQSFADEVSF”, the “soluble on expression in E. coli” value is reported as “not soluble”.
